Results on one molecule are retold here after article PMC2654577.

Assay in all cases: enzyme inhibition kinetics
Assay [1] has as its target factor XIa catalytic domain K170A (human) (UniProt P03951).
Assay [2] concerns the target wild type factor Xa (UniProt P00742).
Assay [3] concerns the target full-length factor XIa autolysis loop variant fXIa-144-149A (human).
Assay [4] concerns the target factor XIa catalytic domain with residues 170, 171 and 173 changed to alanine (human) (UniProt P03951).
In assay [5] the target is factor Xa mutants with substitutions for basic residues in the autolysis loop.

B1: C1-inhibitor (natural protein)
chain: NPNATSSSSQDPESLQDRGEGKVATTVISKMLFVEPILEVSSLPTTNSTTNSATKITANTTDEPTTQPTTEPTTQPTIQPTQPTTQLPTDSPTQPTTGSFCPGPVTLCSDLESHSTEAVLGDALVDFSLKLYHAFSAMKKVETNMAFSPFSIASLLTQVLLGAGENTKTNLESILSYPKDFTCVHQALKGFTTKGVTSVSQIFHSPDLAIRDTFVNASRTLYSSSPRVLSNNSDANLELINTWVAKNTNNKISRLLDSLPSDTRLVLLNAIYLSAKWKTTFDPKKTRMEPFHFKNSVIKVPMMNSKKYPVAHFIDQTLKAKVGQLQLSHNLSLVILVPQNLKHRLEDMEQALSPSVFKAIMEKLEMSKFQPTLLTLPRIKVTTSQDMLSIMEKLEFFDFSYDLNLCGLTEDPDLQVSAMQHQTVLELTETGVEAAAASAISVARTLLVFEVQQPFLFVLWDQQHKFPVFMGRVYDPRA
For B1, the k2 (second-order inhibition rate constant) worked out at 734000 M⁻¹ s⁻¹ in assay [1], 20600 M⁻¹ s⁻¹ in assay [3] and 430000 M⁻¹ s⁻¹ in assay [4]. For the same molecule, the fold effect of heparin on inhibition worked out at 35 fold in assay [2] and 4 fold in assay [5].
